Measurements from patent US20170355769A1 (AbbVie / Abbott, published 2017).

T1: Human B7-H3-ECD (His tag) (human, UniProt Q5ZPR3 29-461)
T1 construct: SPR analyte; also called huB7-H3; soluble ECD of human B7-H3
T1 sequence: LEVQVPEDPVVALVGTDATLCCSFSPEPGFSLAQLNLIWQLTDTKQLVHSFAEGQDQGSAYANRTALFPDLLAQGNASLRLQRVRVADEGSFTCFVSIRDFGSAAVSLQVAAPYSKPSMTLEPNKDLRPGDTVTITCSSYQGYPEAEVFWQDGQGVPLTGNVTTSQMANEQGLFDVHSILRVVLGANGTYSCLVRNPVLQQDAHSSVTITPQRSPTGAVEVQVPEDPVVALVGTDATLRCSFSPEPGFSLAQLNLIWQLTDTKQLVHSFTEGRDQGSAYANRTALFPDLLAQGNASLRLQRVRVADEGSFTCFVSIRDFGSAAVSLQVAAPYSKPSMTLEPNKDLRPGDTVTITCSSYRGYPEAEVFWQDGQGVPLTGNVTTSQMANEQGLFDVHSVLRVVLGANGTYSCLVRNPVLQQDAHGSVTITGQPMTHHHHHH

T2: Human full length B7-H3 (human, UniProt Q5ZPR3 29-534)
T2 construct: On 3T12 fibroblasts expressing full length human B7-H3 or on NCI-H1650 cells; signal peptide residues 1-28 stated; also called huB7-H3; CD276
T2 sequence: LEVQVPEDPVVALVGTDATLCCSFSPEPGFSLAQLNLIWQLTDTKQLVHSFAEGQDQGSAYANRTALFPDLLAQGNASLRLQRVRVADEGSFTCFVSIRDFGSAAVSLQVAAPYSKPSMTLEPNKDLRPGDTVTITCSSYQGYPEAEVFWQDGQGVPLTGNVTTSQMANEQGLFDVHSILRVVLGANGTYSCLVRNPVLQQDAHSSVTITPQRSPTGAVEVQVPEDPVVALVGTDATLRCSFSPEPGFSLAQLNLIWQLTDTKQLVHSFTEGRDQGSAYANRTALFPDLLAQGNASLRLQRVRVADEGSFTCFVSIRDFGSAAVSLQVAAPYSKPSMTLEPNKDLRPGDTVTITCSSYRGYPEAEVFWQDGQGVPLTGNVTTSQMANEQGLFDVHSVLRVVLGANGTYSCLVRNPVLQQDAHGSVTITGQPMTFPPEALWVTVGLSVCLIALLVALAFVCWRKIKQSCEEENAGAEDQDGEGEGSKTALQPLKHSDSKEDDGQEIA


Molecular target: T1, Human B7-H3-ECD (His tag)
Experiment: SPR Biacore, naked mAb
Excerpt: Biacore T200 SPR instruments were used to measure the binding kinetics of human B7-H3 (analyte) binding to various mAbs (ligands). The assay format was Fc-based capture via immobilized anti-mouse (Fc) (Pierce 31170) or immobilized anti-human (Fc) (Pierce 31125). A standard amine coupling protocol was employed to immobilize the capture reagents via primary amines to the carboxy-methyl (CM) dextran surface of CM5 sensorchips (Biacore); capture antibodies were coupled to a level of approximately 5000RU. For binding kinetic measurements the assay buffer was HBS-EP+ (Biacore): 10 mM Hepes, pH7.4, 150 mM NaCl, 3 mM EDTA, 0.05% polysorbate 20. During the assay, all measurements were referenced against the capture surface alone. Each assay cycle consisted of the following steps: 1) Capture of ligand to approximately 50RU; 2) Analyte injection over both reference and test surface, 240 μL at 80 μL/min, after which the dissociation was monitored for 900 seconds at 80 μL/min; 3) Regeneration of capture surface with low pH glycine. […] Data were processed and fit to a 1:1 binding model using Biacore T200 Evaluation Software to determine the binding kinetic rate constants, kₐ (on-rate) and kd (off-rate), and the equilibrium dissociation constant (affinity, KD).
(§1) The parental chAb18 from which the variants were derived was also tested as a comparator.

Binder | Kd [nM]
huAb18v10 (antibody, V domains shown, humanized IgG) VH: EVQLVQSGAEVKKPGSSVKVSCKASGYSFTSYTIHWVRQAPGQGLEWMGYINPNSRNTDYAQKFQGRVTLTADKSTSTAYMELSSLRSEDTAVYYCARYSGSTPYWYFDVWGQGTTVTVSS VL: DIQLTQSPSFLSASVGDRVTITCRASSSVSYMNWYQQKPGKAPKPWIYATSNLASGVPSRFSVSGSGTEHTLTISSLQPEDFATYYCQQWSSNPLTFGQGTKLEIK | 0.25
huAb18v1 (antibody, V domains shown, humanized IgG) VH: EVQLVQSGAEVKKPGSSVKVSCKASGYSFTSYTIHWVRQAPGQGLEWMGYINPNSRNTDYNQKFKDRVTITADKSTSTAYMELSSLRSEDTAVYYCARYSGSTPYWYFDVWGQGTTVTVSS VL: DIQLTQSPSFLSASVGDRVTITCRASSSVSYMNWYQQKPGKAPKLLIYATSNLASGVPSRFSGSGSGTEFTLTISSLQPEDFATYYCQQWSSNPLTFGQGTKLEIK | 0.52
huAb18v2 (antibody, V domains shown, humanized IgG) VH: EVQLVQSGAEVKKPGSSVKVSCKASGYSFTSYTIHWVRQAPGQGLEWMGYINPNSRNTDYAQKFQGRVTLTADKSTSTAYMELSSLRSEDTAVYYCARYSGSTPYWYFDVWGQGTTVTVSS VL: DIQLTQSPSFLSASVGDRVTITCRASSSVSYMNWYQQKPGKAPKLLIYATSNLASGVPSRFSGSGSGTEFTLTISSLQPEDFATYYCQQWSSNPLTFGQGTKLEIK | 0.69

More lines, now with the values ahead:

Kd [nM] | Binder
0.23 | huAb18v3 (antibody, V domains shown, humanized IgG) VH: EVQLVQSGAEVKKPGSSVKVSCKASGYSFTSYTIHWVRQAPGQGLEWIGYINPNSRNTDYNQKFKDRTTLTADRSTSTAYMELSSLRSEDTAVYYCARYSGSTPYWYFDVWGQGTTVTVSS VL: DIQLTQSPSFLSASVGDRVTITCRASSSVSYMNWYQQKPGKSPKPWIYATSNLASGVPSRFSVSVSGTEHTLTISSLQPEDFATYYCQQWSSNPLTFGQGTKLEIK
0.57 | huAb18v4 (antibody, V domains shown, humanized IgG) VH: EVQLVQSGAEVKKPGSSVKVSCKASGYSFTSYTIHWVRQAPGQGLEWMGYINPNSRNTDYAQKFQGRVTLTADKSTSTAYMELSSLRSEDTAVYYCARYSGSTPYWYFDVWGQGTTVTVSS VL: DIQLTQSPSFLSASVGDRVTITCRASSSVSYMNWYQQKPGKSPKPWIYATSNLASGVPSRFSVSVSGTEHTLTISSLQPEDFATYYCQQWSSNPLTFGQGTKLEIK

Molecular target: T2, Human full length B7-H3
Experiment: FACS (Example 6 method)
Experimental: Cells were harvested from flasks when approximately 80% confluent using Gibco® Cell Dissociation Buffer. Cells were washed once in PBS/1% FBS (FACS buffer) then resuspended at 2.5×10⁶ cells/mL in FACS buffer. 100 μL of cells/well were added to a round bottom 96-well plate. 10 μL of a 10× concentration of mAb/ADC (final concentrations are indicated the figures). Wells were washed twice with FACS buffer and resuspended in 50 μL of secondary Ab (AlexaFluor 488) diluted in FACS buffer. The plate was incubated at 4° C. for one hour and washed twice with FACS buffer. Cells were resuspended in 100 μL of PBS/1% formaldehyde and analyzed on a Becton Dickinson LSRII flow cytometer. Data was analyzed using WinList flow cytometry analysis software.
as §1

Binder | EC50 [nM]
huAb18v10-CZ (antibody, V domains shown, synthon CZ on reduced interchain Cys, ADC, DAR 2.7) VH: EVQLVQSGAEVKKPGSSVKVSCKASGYSFTSYTIHWVRQAPGQGLEWMGYINPNSRNTDYAQKFQGRVTLTADKSTSTAYMELSSLRSEDTAVYYCARYSGSTPYWYFDVWGQGTTVTVSS VL: DIQLTQSPSFLSASVGDRVTITCRASSSVSYMNWYQQKPGKAPKPWIYATSNLASGVPSRFSVSGSGTEHTLTISSLQPEDFATYYCQQWSSNPLTFGQGTKLEIK | 1.19
huAb18v6-CZ (antibody, V domains shown, synthon CZ on reduced interchain Cys, ADC, DAR 3.4) VH: EVQLVQSGAEVKKPGSSVKVSCKASGYSFTSYTIHWVRQAPGQGLEWMGYINPNSRNTDYAQKFQGRVTLTADKSTSTAYMELSSLRSEDTAVYYCARYSGSTPYWYFDVWGQGTTVTVSS VL: EIVLTQSPDFQSVTPKEKVTITCRASSSVSYMNWYQQKPDQSPKLLIKATSNLASGVPSRFSGSGSGTDFTLTINSLEAEDAATYYCQQWSSNPLTFGQGTKLEIK | 2.09
huAb18v1-CZ (antibody, V domains shown, synthon CZ on reduced interchain Cys, ADC, DAR 2.6) VH: EVQLVQSGAEVKKPGSSVKVSCKASGYSFTSYTIHWVRQAPGQGLEWMGYINPNSRNTDYNQKFKDRVTITADKSTSTAYMELSSLRSEDTAVYYCARYSGSTPYWYFDVWGQGTTVTVSS VL: DIQLTQSPSFLSASVGDRVTITCRASSSVSYMNWYQQKPGKAPKLLIYATSNLASGVPSRFSGSGSGTEFTLTISSLQPEDFATYYCQQWSSNPLTFGQGTKLEIK | 1.27

More lines, now with the values ahead:

EC50 [nM] | Binder
2.91 | huAb18v5-CZ (antibody, V domains shown, synthon CZ on reduced interchain Cys, ADC, DAR 3.4) VH: EVQLVQSGAEVKKPGSSVKVSCKASGYSFTSYTIHWVRQAPGQGLEWMGYINPNSRNTDYNQKFKDRVTITADKSTSTAYMELSSLRSEDTAVYYCARYSGSTPYWYFDVWGQGTTVTVSS VL: EIVLTQSPDFQSVTPKEKVTITCRASSSVSYMNWYQQKPDQSPKLLIKATSNLASGVPSRFSGSGSGTDFTLTINSLEAEDAATYYCQQWSSNPLTFGQGTKLEIK
1.27 | huAb18v3-CZ (antibody, V domains shown, synthon CZ on reduced interchain Cys, ADC, DAR 2.4) VH: EVQLVQSGAEVKKPGSSVKVSCKASGYSFTSYTIHWVRQAPGQGLEWIGYINPNSRNTDYNQKFKDRTTLTADRSTSTAYMELSSLRSEDTAVYYCARYSGSTPYWYFDVWGQGTTVTVSS VL: DIQLTQSPSFLSASVGDRVTITCRASSSVSYMNWYQQKPGKSPKPWIYATSNLASGVPSRFSVSVSGTEHTLTISSLQPEDFATYYCQQWSSNPLTFGQGTKLEIK
2.25 | huAb18v2-CZ (antibody, V domains shown, synthon CZ on reduced interchain Cys, ADC, DAR 1.8) VH: EVQLVQSGAEVKKPGSSVKVSCKASGYSFTSYTIHWVRQAPGQGLEWMGYINPNSRNTDYAQKFQGRVTLTADKSTSTAYMELSSLRSEDTAVYYCARYSGSTPYWYFDVWGQGTTVTVSS VL: DIQLTQSPSFLSASVGDRVTITCRASSSVSYMNWYQQKPGKAPKLLIYATSNLASGVPSRFSGSGSGTEFTLTISSLQPEDFATYYCQQWSSNPLTFGQGTKLEIK
1.58 | huAb18v9-CZ (antibody, V domains shown, synthon CZ on reduced interchain Cys, ADC, DAR 2.4) VH: EVQLVQSGAEVKKPGSSVKVSCKASGYSFTSYTIHWVRQAPGQGLEWIGYINPNSRNTDYNQKFKDRTTLTADRSTSTAYMELSSLRSEDTAVYYCARYSGSTPYWYFDVWGQGTTVTVSS VL: EIVLTQSPDFQSVTPKEKVTITCRASSSVSYMNWYQQKPDQSPKPWIYATSNLASGVPSRFSVSVSGTDHTLTINSLEAEDAATYYCQQWSSNPLTFGQGTKLEIK
1.92 | huAb18v7-CZ (antibody, V domains shown, synthon CZ on reduced interchain Cys, ADC, DAR 4.3) VH: EVQLVQSGAEVKKPGSSVKVSCKASGYSFTSYTIHWVRQAPGQGLEWMGYINPNSRNTDYAQKFQGRVTLTADKSTSTAYMELSSLRSEDTAVYYCARYSGSTPYWYFDVWGQGTTVTVSS VL: EIVLTQSPDFQSVTPKEKVTITCRASSSVSYMNWYQQKPDQSPKPWIYATSNLASGVPSRFSVSVSGTDHTLTINSLEAEDAATYYCQQWSSNPLTFGQGTKLEIK
0.9 | huAb18v4-CZ (antibody, V domains shown, synthon CZ on reduced interchain Cys, ADC, DAR 2.5) VH: EVQLVQSGAEVKKPGSSVKVSCKASGYSFTSYTIHWVRQAPGQGLEWMGYINPNSRNTDYAQKFQGRVTLTADKSTSTAYMELSSLRSEDTAVYYCARYSGSTPYWYFDVWGQGTTVTVSS VL: DIQLTQSPSFLSASVGDRVTITCRASSSVSYMNWYQQKPGKSPKPWIYATSNLASGVPSRFSVSVSGTEHTLTISSLQPEDFATYYCQQWSSNPLTFGQGTKLEIK
1.98 | huAb18v8-CZ (antibody, V domains shown, synthon CZ on reduced interchain Cys, ADC, DAR 2.6) VH: EVQLVQSGAEVKKPGSSVKVSCKASGYSFTSYTIHWVRQAPGQGLEWIGYINPNSRNTDYNQKFKDRTTLTADRSTSTAYMELSSLRSEDTAVYYCARYSGSTPYWYFDVWGQGTTVTVSS VL: DIQLTQSPSFLSASVGDRVTITCRASSSVSYMNWYQQKPGKAPKPWIYATSNLASGVPSRFSVSGSGTEHTLTISSLQPEDFATYYCQQWSSNPLTFGQGTKLEIK
